According to patent US20250381293A1, “PEPTIDES AND MAGNETIC PARTICLE-PEPTIDE CONJUGATES FOR PREVENTION OR TREATMENT OF GLAUCOMA” (THE GOVERNORS OF THE UNIVERSITY OF ALBERTA, priority 2022, published 2025):

How the values were obtained:
[1] = system: XFS materials; experiment: Ex vivo targeting of Cy5-labeled phage-displayed peptides on exfoliative human lens capsules; type: binding; details: 1 hr, 37° C., human aqueous humor/BSS; fluorescence microscopy
Experimental: Amplified phages (1×10^11 pfu) were resuspended in 0.3 M NaHCO3 (pH 8.6) containing 10 μg Cy5 dye and incubated for 2 hr at room temperature in the dark. Subsequent to phage/fluorophore incubation, 40 μl of 10 mM lysine was added to interact with remaining free Cy5 dye molecules in the solution. The volume of the reaction mixture was subsequently brought up to 1 ml with PBS buffer, and the phages were purified with two rounds of 20% (w/v) polyethylene glycol-8000, 2.5 M NaCl precipitation. The labeled phages resuspended in BSS solution.
Fluorescently labeled phages carrying identified targeting peptides as well as wild-type phages without peptide-encoding inserts were incubated with exfoliative human lens capsules in a 100-μl solution containing equal volumes of human aqueous humor fluid and BSS solution. The incubation was allowed to continue for 1 hr at 37° C. After serially washing with BSST buffer (0.1, 0.3%), three times each, the lens capsules were mounted on microscope slides and were examined under an Olympus IX81 inverted fluorescence microscope (Olympus Corporation, Tokyo, Japan). The location of XFS materials on the surface of the lens capsule was confirmed in bright-field mode prior to fluorescence imaging.

[2] = system: hTM cells; experiment: Live/dead cell viability assay on hTM monolayers; type: cell-based; details: free peptide solution, 1 mM; mean±1 SD, n≥3
Experimental: Primary human trabecular meshwork (hTM) cells were obtained from ScienCell Research Laboratories (Carlsbad, CA), and maintained in TMCM medium (ScienCell, no. 6591). Primary cell culture was passaged according to the manufacturer's instructions. Passage three cells were seeded on tissue culture plates coated with gelatin and media were refreshed every 2-3 days. These monolayer cultures were used in subsequent experiments upon reaching 95-100% confluency.
Cell viability was further assayed using LIVE/DEAD® viability/cytotoxicity kit (Molecular Probes). Monolayers of hTM cells were treated in triplicates with peptides alone in solution (1 mM) and in conjugation with MPs (100 μg). Cell viability was then assessed according to the manufacturer's protocol. The kit is based on calcein AM/ethidium homodimer-1 (EthD-1) system, where calcein AM detects cellular esterase activity of live cells and EthD-1 stains nuclei of dead cells. A similar live/dead assay was used to investigate the effect of MP-peptide conjugates on the viability of hTM cells in the presence of the rotating magnetic field. […] The viability of hTM cells was then assessed as described above. […] The cells were treated with the rotating magnetic field for 10 min and then analyzed using live/dead assay as described before. […]

[3] = system: hTM cells; experiment: DNA fragmentation analysis (apoptosis); type: cell-based, human; details: free peptide solution, 24 hr (0.5 mM, elsewhere in the source)
Experimental: Effect of peptide-particle conjugates and peptide solutions on the induction of apoptotic DNA fragmentation was analyzed in hTM cells. […] Cells were recovered from wells using a cell scraper. DNA was isolated and purified using DNeasy blood and tissue kit (Qiagen). Extracted DNA molecules from control and treated hTM cells were subjected to 2% agarose gel electrophoresis and visualized by SYBR green staining.

Sequence	binding of Cy5-labeled phages to XFS materials on lens capsule [1]	% of live cells [2]	apoptotic chromosomal DNA fragmentation [3]
IPLLNPGSMQLS [p-IPL]	specific binding to XFS materials	99.00 ± 0.37%	chromosomal DNA remained intact
LPSYNLHPHVPP [p-LPS]	specific binding to XFS materials	99.12 ± 0.94%	chromosomal DNA remained intact
